Tests used:
[1] = system: pancreatic β-cells; assay: Surface ratio of β-cells to α-cells in STZ mice administered synthetic polypeptides A-C; type: in vivo, C57BL/6 mouse; details: STZ mouse, 25 nmol/kg body weight i.p. twice daily for eight weeks; vs saline; FIG. 8
Experimental: In the sixth embodiment, the action of synthetic polypeptides A-C on Type-1 diabetes STZ model mice was confirmed in the same manner as the third embodiment.
Firstly a 7-week old C57BL/6 mouse (body weight approximately 18-20 g) was fasted for 18 hours from day 0 and then streptozocin dissolved in saline (100 mg/kg body weight) was administered into the interperitoneal region and free feeding was immediately allowed. […] The serum blood-glucose level was measured on the seventh day. A fasting blood glucose level of greater than or equal to 150 mg/dL was determined as diabetes and the experiment described hereafter was conducted. STZ mice determined to have diabetes were administered into the interperitoneal region twice daily the polypeptide A-C (25 nmol/kg body weight) dissolved in saline for eight weeks from the seventh day.
The pancreas of the STZ mice was removed and after fixing the tissue with paraformaldehyde, the tissue sample preparation office at University of Tsukuba was employed to prepare a paraffin-embedded section. […] The section was thereafter mounted on a fluorescence photobleaching prevention agent (VECTASHILD Mounting Medium; Vector) and observed through a fluorescence microscope (BZ-8000; KEYENCE) to measure the surface ratio (β-cells/α-cells) of β-cells to α-cells. […]

[2] = system: MIN6 cells; assay: Glucose-stimulated insulin secretion (GSIS) in MIN6 cells stimulated with culture supernatant of CF266-transfected HEK293T cells; type: cell-based, murine; details: culture supernatant of transfected HEK293T cells : KRBH buffer 1:1 (v/v), stimulated one hour, vs Mock, FIG. 2
Experimental: In Embodiment 1, an action was confirmed with respect to MIN6 cells using a culture supernatant of a HEK293T cell strain originating from fetal kidney epithelial cells transfected with CF266.
Firstly, HEK293T cells subcultured in DMEM media enriched with 5% FCS and an antibiotic (penicillin 100 U/mL, streptomycin […]) were plated onto a 10 cm dish at a concentration of 1×10^6 cells/dish. On the following day, HEK292T cells were transfected with an expression vector for mCF266 (pCAGGS-mCF266) using a FuGENE6 (Roche) and mCF266 was forcibly expressed. After 24 hours, the media was exchanged for Opti-MEM media and after a further 24 hours, a culture supernatant was recovered.
Next, MIN6 cells subcultured in DMEM media (high glucose, Invitrogen) enriched with 15% FCS, an antibiotic (penicillin 100 U/mL, streptomycin […]) and 2-mercaptoethanol were plated onto a 24-well plate at a concentration of 3×10^5 cells/well. On the following day, 0.5 mL/well KRBH buffer solution (2.8 mM glucose) was added and pre-culturing was conducted for 30 minutes. Then 0.5 mL/well of a mixed solution of the above culture supernatant and KRBH buffer solution (1:1(v/v)) was added and stimulated for one hour. Then glucose-stimulated insulin secretion (GSIS) was measured for the MIN6 cells. […]

[3] = system: type-1 diabetes STZ model mouse; assay: Oral glucose tolerance test after adenoviral expression of hCF266(27V) in STZ model mouse; type: in vivo, C57BL/6 mouse; details: adenovirus i.v. 1×10^9 PFU/mL on day 7, OGTT on twelfth day, vs Ad GFP or Ad (−), FIG. 5
Experimental: In the fourth embodiment, an adenoviral vector expressing hCF266(27V) was used to confirm the action of hCF266(27V) with respect to an STZ model mouse which is a type-1 diabetes model mouse.
Firstly a 7-week old C57BL/6 mouse (body weight approximately 18-20 g) was fasted for 18 hours from day 0 and then streptozocin dissolved in saline (100 mg/kg body weight) was administered into the interperitoneal region and free feeding was immediately allowed. From the following day, after fasted for 18 hours the same amount of streptozocin was re-administered on the second day into the interperitoneal region and free feeding was immediately allowed. The serum blood-glucose level was measured on the seventh day. A fasting blood glucose level of greater than or equal to 150 mg/dL was determined to be diabetes and the experiment described hereafter was conducted. On the same day, a recombinant adenovirus (prepared using ViraPower which is a tradename of Invitrogen) constructed by linking hCF266(27V) to a CAG promoter was intravenously injected at a concentration of 1×10^9 PFU/mL into the caudal vein of a STZ mouse determined to be suffering diabetes. On the twelfth day, an oral glucose tolerance test (OGTT) was performed by periodically taking blood and measuring the blood-glucose level of the serum and the insulin level. […]

[4] = system: pancreatic β-cells; assay: Surface ratio of β-cells to α-cells in pancreas sections of STZ mice given hCF266(27V) adenovirus; type: in vivo, C57BL/6 mouse; details: STZ mouse, adenoviral expression; vs Ad GFP or Ad (−); FIG. 6
Experimental: Firstly a 7-week old C57BL/6 mouse (body weight approximately 18-20 g) was fasted for 18 hours from day 0 and then streptozocin dissolved in saline (100 mg/kg body weight) was administered into the interperitoneal region and free feeding was immediately allowed. From the following day, after fasted for 18 hours the same amount of streptozocin was re-administered on the second day into the interperitoneal region and free feeding was immediately allowed. The serum blood-glucose level was measured on the seventh day. A fasting blood glucose level of greater than or equal to 150 mg/dL was determined to be diabetes and the experiment described hereafter was conducted. On the same day, a recombinant adenovirus (prepared using ViraPower which is a tradename of Invitrogen) constructed by linking hCF266(27V) to a CAG promoter was intravenously injected at a concentration of 1×10^9 PFU/mL into the caudal vein of a STZ mouse determined to be suffering diabetes. On the twelfth day, an oral glucose tolerance test (OGTT) was performed by periodically taking blood and measuring the blood-glucose level of the serum and the insulin level.
The pancreas of the STZ mice was removed and after fixing the tissue with paraformaldehyde, the tissue sample preparation office at University of Tsukuba was employed to prepare a paraffin-embedded section. […]

[5] = system: type-2 diabetes model KK/Ay mouse; assay: Intravenous glucose tolerance test after adenoviral expression of mCF266 in KK/Ay mouse; type: in vivo; details: adenoviral vector i.v. 6×10^9 PFU/mL, after four days, vs Ad GFP
Source text: In the second embodiment, an adenoviral vector expressing mCF266 was used to confirm the action of mCF266 with respect to a KK/Ay mouse which is a type-2 diabetes model mouse.
Firstly an adenoviral vector (prepared using ViraPower which is a tradename of Invitrogen) constructed by linking mCF266 to a CAG promoter was intravenously injected at a concentration of 6×10^9 PFU/mL into the caudal vein of a 18-week old KK/Ay mouse (body weight approximately 47-51 g) given a high-fat high-sucrose diet. After four days, an intravenous glucose tolerance test (i.v. GTT) was performed by periodically taking blood and measuring the blood-glucose level of the serum and the insulin level.
Consequently expression of mCF266 is shown to induce insulin secretion.

[6] = system: pancreatic β-cells; assay: Surface area and number of β-cells (islets of Langerhans) in mCF266 transgenic mice; type: in vivo, mouse
Experimental: Firstly, an mCF266 expression vector (pCAGGS-mCF266) was constructed by linking mCF266 to a CAG promoter and linearized. The University of Tsukuba Laboratory Animal Resource Center was employed to produce a transgenic mouse. The introduced gene was confirmed using PCR and southern blotting and mating for five generations with C57BL/6 mice was conducted.
The pancreas of the transgenic mice was removed and after fixing the tissue with paraformaldehyde, the tissue sample preparation office at University of Tsukuba was employed to prepare a paraffin-embedded section. After the section was removed from paraffin, antigen activation was performed for 30 minutes at room temperature using 0.1% Triton X-100 and then blocking was performed for one hour at room temperature using 5% skim milk. After blocking, a primary antibody reaction was performed overnight at 4° C. using polyclonal anti-insulin guinea pig antibody (Daco) and polyclonal anti-glucagon rabbit antibody (Daco). The section was washed using Tris-buffered saline containing 0.1% Tween20 (TBST). […] The section was thereafter mounted on a fluorescence photobleaching prevention agent (VECTASHILD Mounting Medium; Vector) and observed through a fluorescence microscope (BZ-8000; KEYENCE) to measure the surface area of islets of Langerhans stained by insulin relative to the pancreas surface area on the section. […]

ALYCMLISIQALLKGPLMC (Human) [polypeptide A, 19 amino acid fragment, 98-116th amino acids of the hCF266(27V) polypeptide]
surface ratio (β-cells/α-cells) β-cells to α-cells [1]: excellent

B1: hCF266(27V): Human DNA SEQ. ID. No. 4 encoding TM4SF20, 27th amino acid valine; tested as transfected-cell supernatant and adenoviral vector (protein)
chain: MTCCEGWTSCNGFSLLVLLLLGVVLNVIPLIVSLVEEDQFSQNPISCFEWWFPGIIGAGLMAIPATTMSLTARKRACCNNRTGMFLSSLFSVITVIGALYCMLISIQALLKGPLMCNSPSNSNANCEFSLKNISDIHPESFNLQWFFNDSCAPPTGFNKPTSNDTMASGWRASSFHFDSEENKHRLIHFSVFLGLLLVGILEVLFGLSQIVIGFLGCLCGVSKRRSQIV
modifications: Human
notes: ID; No. 4 encoding TM4SF20, 27th amino acid valine; tested as transfected-cell supernatant and adenoviral vector
glucose-stimulated insulin secretion (GSIS) [2]: excellent action
blood glucose level (OGTT) [3]: significantly reduced
surface ratio (β-cells/α-cells) of β cells to α cells [4]: significantly increased

B2: mCF266: Murine DNA SEQ. ID. No. 1 encoding membrane protein Tm4sf20; tested as transfected-cell supernatant, adenoviral vector and transgene (protein)
chain: MTCCEGWTSCNGFSLLILILLGVVINCIPLGISLVEADSTSQNPISCYEWWFPGIIGAGLMAIPATTMSLAARKRACCNNKTGMFLSSLFSVITVVGAVYCMLVSLQALLEGPLICNTQANSTVTCEFSLKNLSKFDPESFNLLWFFNGTCVSPTDFKNPTINNMVSNWKIPNSNSEEDRHRIFHFSVFMSLLLVGILELLFGLSQILIGFLGCLCGVSQRRSQIV
modifications: Mouse
notes: ID; No. 1 encoding membrane protein Tm4sf20; tested as transfected-cell supernatant, adenoviral vector and transgene
blood-glucose level (i.v. GTT) ([5]; FIG. 3A): only a slightly low tendency
insulin value (i.v. GTT) ([5]; FIG. 3B): significantly higher
number of β-cells ([6]; transgenic mice hetero (+/−) or homo (+/+) vs wild-type (normalized to 1), FIG. 7B): conspicuously increased
surface area of β-cells ([6]; transgenic mice hetero (+/−) or homo (+/+) vs wild-type, FIG. 7A): conspicuously increased
